These are literature values, as cited in PMC3423339.

For this data set, the target named is Alk1 (Homo sapiens) (UniProt P37023).
UniProt P37023, sequence (P37023 22-118): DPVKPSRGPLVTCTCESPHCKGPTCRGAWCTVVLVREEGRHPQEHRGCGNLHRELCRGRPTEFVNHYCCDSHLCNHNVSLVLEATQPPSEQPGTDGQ

The Kd is the constant that tells how readily two partners part at equilibrium. As for BMP9 (from UniProt Q9UK05), the Kd is 1 pM.
